In patent US20260193348A1 (ANTENGENE BIOLOGICS, published 2026):
Read-outs that look alike come from different tables or passages of the source.

Key:
[1] = target: T1, GPRC5D (G-protein coupled receptor family C group 5 member D), human, on multiple myeloma cell lines (human, UniProt Q9NZD1 1-345); assay: cell-based or functional assay
[2] = target: T1, GPRC5D (G-protein coupled receptor …); assay: cell-based or functional assay; remark: listed apart in the source
[3] = target: T1, GPRC5D (G-protein coupled receptor …); assay: cell-based or functional assay; remark: listed apart in the source
[4] = target: T1, GPRC5D (G-protein coupled receptor …); assay: cell-based or functional assay; remark: listed apart in the source
[5] = target: T2, CD3 (Cluster of Differentiation 3 protein), human, on T cells / Jurkat cells (human, UniProt P07766 23-207; P04234 22-171; P09693 23-182); assay: FACS, Jurkat cells, antibody at 50 µg/ml
T2 construct: whole, on cells; part of the TCR-CD3 complex; also called human CD3
Method in brief: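 Jurkat cells in PBS + 1% BSA were incubated with humanized Fab-scFv-Fab bispecific antibody dilutions for 1 hour at 4 degrees, then washed. A secondary antibody was applied for 0.5 hours at 4 degrees. Binding was read as fluorescence by flow cytometry.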

[6] = target: T2, CD3 (Cluster of Differentiation 3 …); assay: FACS, CD3+ T cells isolated from normal donors
Protocol: To evaluate the binding affinity of the generated chimeric bispecific antibody to T cells, the isolated CD3⁺ T cells were stained by antibodies and the binding affinity was determined by FACS analysis. The protocol of FACS analysis is described as follows: [0785] (a) CD3⁺ T cells were isolated from normal donors. [0786] (b) The isolated CD3⁺ T cells were washed by Staining Buffer (PBS+1% BSA) in round bottom 96-well plate. […] (c) Antibody dilutions were added to each well and mixed with the CD3+ T cells, incubated at 4 degrees for 1 hour. […] (d) Cells were spined at 300 g for 3 minutes, then the supernatants were discarded. [0789] (e) Cells were washed with Staining Buffer. [0790] (f) Step (d) was repeated, and the cells were incubated with secondary antibody in Staining Buffer for 0.5 hours at 4 degrees. [0791] (g) After incubation, step (d)-(e) were repeated. [0792] (h) Cells were resuspended in Staining Buffer and fluorescence signals were recorded by flow cytometry.

[7] = target: T1, GPRC5D (G-protein coupled receptor …); assay: FACS, MM.1S cells
Protocol: (§1) The binding affinities of the generated humanized Fab-scFv-Fab bispecific antibodies were determined by FACS analysis. […] (a) Jurkat cells were washed by Staining Buffer (PBS+1% BSA) in round bottom 96-well plate. [0833] (b) Antibody dilutions and cells were added to each well, incubated at 4 degrees for 1 hour. [0834] (c) Cells were spined down at 300 g for 3 minutes, and the supernatants were discarded. [0835] (d) Cells were washed with Staining Buffer. […] (e) Step (d) was repeated and the cells were incubated for 0.5 hours at 4 degrees with secondary antibody in Staining Buffer. [0837] (f) After incubation, step (d)-(e) were repeated. […] (g) Staining Buffer was added and fluorescence signals were recorded by flow cytometry.
(§2) The binding affinities of the generated humanized Fab-scFv-Fab bispecific antibodies to different multiple myeloma cell lines were evaluated by FACS analysis. The protocol for FACS analysis is identical to that described in Example 3.2, except that different cells were used in this example, i.e., multiple myeloma cell lines (MM.1S, […], L363 and RPMI 8226) were used in this example.

[8] = target: T1, GPRC5D (G-protein coupled receptor …); assay: FACS, MOLP-8 cells
Protocol: as §1, §2

GPRC5D on MM.1S cells [9] = target: T3, GPRC5D on MM.1S cells (human, UniProt Q9NZD1 1-345); assay: FACS on MM.1S cells
T3 construct: whole, on cells; MM.1S is called a GPRC5D positive expressed cell line and human multiple myeloma cells; also called G-protein coupled receptor family C group 5 member D
Protocol: as §1
The binding affinities of the generated humanized Fab-scFv-Fab bispecific antibodies were determined by FACS analysis. The ATG-Bis-40E9 was used as positive control and hIgG1 isotype was used as negative control. The protocol for FACS analysis is identical to that described in Example 3.2, except that MM.1S cells were used in this example.

CD3 on Jurkat cells = target: T4, CD3 on Jurkat cells (UniProt P07766 23-207; P04234 22-171; P09693 23-182); assay: FACS on Jurkat cells
T4 construct: whole, on cells; On the cell, CD3 stands in the TCR-CD3 complex; also called cluster of differentiation 3
Protocol: as §1
The binding affinities of the generated humanized Fab-scFv-Fab bispecific antibodies were determined by FACS analysis. The ATG-Bis-40E9 described in Example 1 was used as positive control and hIgG1 isotype was used as negative control. The protocol for FACS analysis is described in Example 3.2 above.

GPRC5D on MM.1S cells [10] = target: T3, GPRC5D on MM.1S cells; assay: cell-based or functional assay
GPRC5D on MM.1S cells [11] = target: T3, GPRC5D on MM.1S cells; assay: cell-based or functional assay; remark: listed apart in the source

T3 sequence (Q9NZD1 whole entry): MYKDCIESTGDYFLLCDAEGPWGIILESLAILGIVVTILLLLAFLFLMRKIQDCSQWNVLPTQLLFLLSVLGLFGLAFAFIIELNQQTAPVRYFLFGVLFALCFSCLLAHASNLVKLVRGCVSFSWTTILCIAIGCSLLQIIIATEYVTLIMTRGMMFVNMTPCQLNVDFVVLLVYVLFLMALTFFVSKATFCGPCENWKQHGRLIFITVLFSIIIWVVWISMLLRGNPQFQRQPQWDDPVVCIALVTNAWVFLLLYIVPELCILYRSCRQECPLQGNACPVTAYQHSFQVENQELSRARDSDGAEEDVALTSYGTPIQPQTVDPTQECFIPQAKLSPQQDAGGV
T1 sequence (Q9NZD1 whole entry): as above
T2 sequence (P07766 23-207, chain 1 of 3): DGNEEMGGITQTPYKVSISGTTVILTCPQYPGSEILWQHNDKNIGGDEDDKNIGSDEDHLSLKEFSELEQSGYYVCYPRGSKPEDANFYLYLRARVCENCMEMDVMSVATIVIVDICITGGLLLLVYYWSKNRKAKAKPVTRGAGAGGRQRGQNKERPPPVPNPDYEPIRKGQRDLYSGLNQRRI
T2 sequence (P04234 22-171, chain 2 of 3): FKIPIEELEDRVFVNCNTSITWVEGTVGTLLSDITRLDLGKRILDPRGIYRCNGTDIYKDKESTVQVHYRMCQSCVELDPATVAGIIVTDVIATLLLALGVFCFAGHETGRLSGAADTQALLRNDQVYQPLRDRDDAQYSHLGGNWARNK
T2 sequence (P09693 23-182, chain 3 of 3): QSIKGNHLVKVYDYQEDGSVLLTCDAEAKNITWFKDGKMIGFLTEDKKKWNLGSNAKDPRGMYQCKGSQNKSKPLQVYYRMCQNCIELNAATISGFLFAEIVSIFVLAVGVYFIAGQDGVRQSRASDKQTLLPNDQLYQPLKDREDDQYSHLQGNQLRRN
T4 sequence (P07766 23-207, chain 1 of 3): as the sequence (P07766 23-207, chain 1 of 3) above
T4 sequence (P04234 22-171, chain 2 of 3): as the sequence (P04234 22-171, chain 2 of 3) above
T4 sequence (P09693 23-182, chain 3 of 3): as the sequence (P09693 23-182, chain 3 of 3) above

| Binder | IC50 (nM), T-Cell Dependent Cytotoxicity, L363 [1] | IC50 (nM), T-Cell Dependent Cytotoxicity, MM.1S [1] | IC50 (nM), T-Cell Dependent Cytotoxicity, MOLP-8 [1] | IC50 (nM), T-Cell Dependent Cytotoxicity, RPMI8226 [1] | EC50 (nM), luciferase assay, L363 [2] | EC50 (nM), luciferase assay, MM.1S [2] | EC50 (nM), luciferase assay, MOLP-8 [2] | EC50 (nM), luciferase assay, RPMI8226 [2] | IC50 (nM), T-Cell Dependent Cytotoxicity, MM.1S [3] | IC50 (nM), T-Cell Dependent Cytotoxicity, MOLP-8 [3] | IC50 (nM), T-Cell Dependent Cytotoxicity, RPMI8226 [3] | Top (%), T-Cell Dependent Cytotoxicity, MM.1S [3] | Top (%), T-Cell Dependent Cytotoxicity, MOLP-8 [3] | Top (%), T-Cell Dependent Cytotoxicity, RPMI8226 [3] | EC50 (nM), luciferase assay, L363 [4] | EC50 (nM), luciferase assay, MM.1S [4] | EC50 (nM), luciferase assay, MOLP-8 [4] | EC50 (nM), luciferase assay, RPMI8226 [4] | Top (RLU), luciferase assay, L363 [4] | Top (RLU), luciferase assay, MM.1S [4] | further results |
| --- | --- | --- | --- | --- | --- | --- | --- | --- | --- | --- | --- | --- | --- | --- | --- | --- | --- | --- | --- | --- | --- |
| RG6234 (bispecific antibody, human IgG1, kappa, L234A L235A, construct per WO2019154890A1; also called benchmark antibody RG6234 (Roche)) heavy 1: EVQLVESGGGLVQPGRSLKLSCAASGFSFSNYGMAWVRQAATKGLEWVASISTGGGNTYYRDSVKGRFIVSRDNAKNTQYLQMDSLRSEDTATYYCTRHDRGGLYWGQGVMVTVSSASTKGPSVFPLAPSSKSTSGGTAALGCLVEDYFPEPVTVSWNSGALTSGVHTFPAVLQSSGLYSLSSVVTVPSSSLGTQTYICNVNHKPSNTKVDEKVEPKSCDKTHTCPPCPAPEAAGGPSVFLFPPKPKDTLMISRTPEVTCVVVDVSHEDPEVKFNWYVDGVEVHNAKTKPREEQYNSTYRVVSVLTVLHQDWLNGKEYKCKVSNKALGAPIEKTISKAKGQPREPQVCTLPPSRDELTKNQVSLSCAVKGFYPSDIAVEWESNGQPENNYKTTPPVLDSDGSFFLVSKLTVDKSRWQQGNVFSCSVMHEALHNHYTQKSLSLSPGK heavy 2: not shown light 1: DIVMTQAPLSVSVTPGESASISCRSSKSLLHSNGITYVYWYFQKPGKSPQVLIYRMSNLASGVPDRFSGSGSETDFTLKISRVEAEDVGIYHCGQLLENPYTFGAGTELELKRTVAAPSVFIFPPSDRKLKSGTASVVCLLNNFYPREAKVQWKVDNALQSGNSQESVTEQDSKDSTYSLSSTLTLSKADYEKHKVYACEVTHQGLSSPVTKSFNRGEC light 2: EVQLLESGGGLVQPGGSLRLSCAASGFTFSTYAMNWVRQAPGKGLEWVSRIRSKYNNYATYYADSVKGRFTISRDDSKNTLYLQMNSLRAEDTAVYYCVRHGNFGNSYVSWFAYWGQGTLVTVSSRTVAAPSVFIFPPSDEQLKSGTASVVCLLNNFYPREAKVQWKVDNALQSGNSQESVTEQDSKDSTYSLSSTLTLSKADYEKHKVYACEVTHQGLSSPVTKSFNRGEC | 0.007 nM | 0.006 nM | 0.002 nM | 0.031 nM | 44 nM | 0.334 nM | 0.756 nM | 0.047 nM | 0.019 nM | 0.00599 nM | 0.0899 nM | 77.2% | 53.4% | 8.1% | 0.0532 nM | 0.0397 nM | 0.021 nM | 0.0929 nM | 1260 RLU | 3910 RLU | Top (RLU), luciferase assay, MOLP-8 [4]: 1060 RLU; Top (RLU), luciferase assay, RPMI8226 [4]: 616 RLU; MFI (50 µg/ml) [5]: 836 MFI; EC50 [6]: 274 nM; Top (MFI) [6]: 2550 MFI |
| ATG-Bis-40E9 (bispecific antibody, Fab-scFv-Fab (2+1) format: two anti-GPRC5D Fabs, one anti-CD3 scFv; LALA (L234A, L235A, EU); also called chimeric 2+1 bispecific antibody; 108C4C12 Fab x 40-C12-C10-E9 scFv; not shown: CH1; CL; CH2-CH3 with L234A, L235A; heavy chain constant region with L234A, L235A) heavy: EVQLQQSGPELVKPGASVKMSCKASGYTFTSYVIHWVKQKTGQGLEWIGYFNPYNDGTKYNEEFKGKATLTSDKSSNTAYMELNSLTSDDSAVYFCARGGVRRYFDVWGAGTTVTVSS heavy (part 1 of 2): EVQLQQSGPELVKPGASVKMSCKASGYTFTSYVIHWVKQKTGQGLEWIGYFNPYNDGTKYNEEFKGKATLTSDKSSNTAYMELNSLTSDDSAVYFCARGGVRRYFDVWGAGTTVTVSS heavy (part 2 of 2): GGGGSGGGGSEVQLQLSGPELVKPGASVKMSCKASGYTFSSYVIHWVKQKPGQGLEWIGYINPYNDVIKYNEKFKGKATLTSDKSSSTAYMELSSLTSEDSAVYYCARDSYYSYDGFAYWGQGTLVTVSAGGGGSGGGGSGGGGSGGGGSQIVLTQSPAIMSASPGEKVTMTCSASSSVSYMHWYQQKSGTSPKRWIYDTSKLASGVPARFSGSGSGTSYSLTISSMEAEDAATYYCQQWSSNPPTFGGGTKVEIKGGGGSGGGGS light: DIQMTQSPSSLSASLGERVSLTCRASQDIGSNLNWLQQEPDGTIKRLIYATFGLDSGVPKRFSGSRSGSDYSLTISSLESEDFVDYYCQQYASFPYTFGGGTKLEIK | 0.001 nM | 0.002 nM | 0.001 nM | 0.009 nM | 69.4 nM | 0.739 nM | 0.374 nM | 0.071 nM | 0.00641 nM | 0.00607 nM | 0.0351 nM | 81.5% | 59% | 9% | 0.028 nM | 0.787 nM | 0.0186 nM | 0.117 nM | 1050 RLU | 3550 RLU | EC50 [7]: 11.3 nM; Top (MFI) [7]: 1200 MFI; EC50 [8]: 0.817 nM; Top (MFI) [8]: 958 MFI; Top (RLU), luciferase assay, MOLP-8 [4]: 826 RLU; Top (RLU), luciferase assay, RPMI8226 [4]: 776 RLU; MFI (50 µg/ml) [5]: 490 MFI; EC50 [6]: 287 nM; Top (MFI) [6]: 1990 MFI |
| Bis-108+147-S54R.H (bispecific antibody) chain 1: EVQLVQSGAEVKKPGASVKVSCKASGYTFTSYVIHWVRQAPGQGLEWMGYFNPYNDGTKYNEEFKGRVTLTSDKSTSTAYMELRSLRSDDTAVYYCARGGVRRYFDVWGQGTTVTVSS chain 2: EVQLVQSGAEVKKPGSSVKVSCKASGYTFTSYWMHWVRQAPGQCLEWMGNINPRSGATNYNEKFKSRVTLTVDKSTSTAYMELSSLRSEDTAVYYCARDRSSQYYFDYWGQGTTVTVSSGGGGSGGGGSGGGGSGGGGSDIVMTQSPDSLAVSLGERATINCKSSQSLLNSRSRKNYLAWYQQKPGQPPKLLIYWASTRESGVPDRFSGSGSGTDFTLTISSLQAEDVAVYYCTQSYTLRTFGCGTKVEIK chain 3: DIQMTQSPSSLSASVGDRVTITCRASQDIGSNLNWLQQKPGKAIKRLIYATFGLDSGVPSRFSGSRSGTDFTLTISSLQPEDFATYYCQQYASFPYTFGGGTKVEIK | – | – | – | – | – | – | – | – | – | – | – | – | – | – | – | – | – | – | – | – | EC50 (GPRC5D on MM.1S cells [9]): 3.7 nM; Top signal (GPRC5D on MM.1S cells [9]): 2620 MFI; Top signal (CD3 on Jurkat cells): 293 MFI; IC50 of T-cell dependent cytotoxicity on MM.1S cells (GPRC5D on MM.1S cells [10]): 1.25 nM; Top (%) target cell killing, MM.1S cells (GPRC5D on MM.1S cells [10]): 110%; EC50, Jurkat-NFAT-Luciferase assay in the presence of MM.1S cells (GPRC5D on MM.1S cells [11]): 0.24 nM; Top RLU, Jurkat-NFAT-Luciferase assay in the presence of MM.1S cells (GPRC5D on MM.1S cells [11]): 362 RLU |
